One substance from paper PMC4241754 can be followed below.

In the assay the target is WlbA from Thermus thermophilus (Thermus thermophilus). The assay can be described thus: crystal structure.

The substance WlbA from Thermus thermophilus (enzyme) displayed a stoichiometry N of 4.
